Measurements published in patent US20230141177A1.

Tests used:
[1] = target: Aβ aggregates in the high molecular weight (HMW) fraction of pooled soluble human AD brain extract (>70 kDa to ~700 kDa) (human) (UniProt P05067); experiment: sandwich SPR: HMW material captured by immobilized Clone 14, detected by aducanumab
[2] = target: AβO in the low molecular weight (LMW) fraction of pooled soluble human AD brain extract (~8 kDa to ~70 kDa) (human) (UniProt P05067); experiment: sandwich SPR: LMW material captured by immobilized Clone 14, detected by aducanumab
[3] = target: Aβ aggregates in the high molecular weight (HMW) fraction of pooled soluble human AD brain extract (>70 kDa to ~700 kDa) (human) (UniProt P05067); experiment: sandwich SPR: HMW material captured by immobilized Clone 5, detected by aducanumab
[4] = target: Aβ aggregates in the high molecular weight (HMW) fraction of pooled soluble human AD brain extract (>70 kDa to ~700 kDa) (human) (UniProt P05067); experiment: sandwich SPR: HMW material captured by immobilized Parental, detected by aducanumab
[5] = target: Aβ aggregates in the high molecular weight (HMW) fraction of pooled soluble human AD brain extract (>70 kDa to ~700 kDa) (human) (UniProt P05067); experiment: sandwich SPR: HMW material captured by immobilized Clone 4, detected by aducanumab
[6] = target: AβO in the low molecular weight (LMW) fraction of pooled soluble human AD brain extract (~8 kDa to ~70 kDa) (human) (UniProt P05067); experiment: sandwich SPR: LMW material captured by immobilized Parental, detected by aducanumab
[7] = target: AβO in the low molecular weight (LMW) fraction of pooled soluble human AD brain extract (~8 kDa to ~70 kDa) (human) (UniProt P05067); experiment: sandwich SPR: LMW material captured by immobilized Clone 4, detected by aducanumab

- Bound Ab detection by aducanumab, HMW (BRU) [1]: 5.7 BRU
- Bound Ab detection by aducanumab, LMW (BRU) [2]: 4.4 BRU
- Bound Ab detection by aducanumab, HMW (BRU) [3]: 1.25 BRU
- Bound Ab detection by aducanumab, HMW (BRU) [4]: 8.3 BRU
- Bound Ab detection by aducanumab, HMW (BRU) [5]: 10.4 BRU
- Bound Ab detection by aducanumab, LMW (BRU) [6]: 5.8 BRU
- Bound Ab detection by aducanumab, LMW (BRU) [7]: 7.7 BRU
Substance: Aducanumab (antibody)
